Assay results as given in patent US12180255B2, “Compositions and methods for derepressing RE1 silencing transcription factor target genes” (Alcamena Stem Cell Therapeutics, LLC, priority 2019, dated 2024).
[ ]: non-standard residue; d: D form. ξ: configuration not given here. ξGly(dodecyl) = CCCCCCCCCCCCC(N)C(=O)O

Legend:
[1] = target: T1, CTDSP1 (Homo sapiens, UniProt Q9GZU7); experiment: In vitro CTDSP1 phosphatase activity on phosphorylated REST peptide; format: biochemical; conditions: for Relative Phosphatase activity: 1 μM peptide-GST fusion, relative to GST control, substrate TEDpSPPpSPPLPKEN; for inhibition of phosphatase activity: 1 μM, relative to control (GST)
T1 construct: GSGS linker + His6 (C)
T1 sequence (Q9GZU7 with tags, fused parts or gaps): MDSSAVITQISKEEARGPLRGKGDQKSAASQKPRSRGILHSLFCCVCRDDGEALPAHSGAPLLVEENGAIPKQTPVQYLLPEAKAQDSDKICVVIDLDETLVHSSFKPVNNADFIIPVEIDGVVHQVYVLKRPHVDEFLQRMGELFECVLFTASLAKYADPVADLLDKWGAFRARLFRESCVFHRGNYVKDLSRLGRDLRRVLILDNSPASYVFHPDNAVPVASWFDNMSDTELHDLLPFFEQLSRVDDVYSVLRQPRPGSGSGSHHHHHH
Method: FIG. 25. In vitro CTDSP1 phosphatase activity (relative to GST control) on the REST peptide (TEDpSPPp[…] (SEQ ID NO: 329)) as a substrate after exposure to 1 μM of RPP (SEQ ID NO: 1) or one of its variants (Table 3).
FIG. 26. […] N=5, error bars are standard deviation.
Results: FIG. 25—The top 51 most abundant RPP variants identified in the RNA display/protein evolution screen are listed in-Table 3 in the order of most (V1) to least (V51) abundant peptides. The primers used to make these peptides are listed in-Table 5. A phosphatase activity screen (Table 6, FIG. 25) was used to assess the ability of the top 51 RPPV to inhibit CTDSP1 phosphatase activity at amino acids 861 and 864 on the endogenous phosphorylated REST peptide (TEDpSPPp[…] (SEQ ID NO: 329)).
The phosphorylated REST peptide (TEDpSPPp[…] (SEQ ID NO: 329)) was synthesized by GeneScript. Phosphatase reactions were performed with 10 mM Tris pH 8, 10 mM MgCl2, 100 nM CTDSP1, 0.5 μM phosphate sensor (Thermo Fischer), 50 μM of REST peptide and various concentrations of peptide-GST fusions at room temperature for 10 min. All assays were performed in 96-well pates (Corning P/N 3686) rinsed with water 10 times. Fluorescence was measured by BioTek Synergy HTX using kinetic read with excitation at 420/27 nm and emission at 485/20 nm.

[2] = test system: L5 DRGs; experiment: qRT-PCR mRNA expression in ex vivo cultured L5 DRGs; format: cell-based, Sprague Dawley rat; conditions: DRG; 1 μM; 48 h
Method: FIG. 15. […] Error bars =standard error of the mean.
L5 DRGs were dissected from adult male rats and plated in 12-well plates pre-coated with poly-D-Lysine (PDL) and laminin in a minimal volume of medium (250 ul Neurobasal™-A medium (GIBCO) supplemented with B27 (GIBCO), 50 ng/ml NGF (Sigma-Aldrich) and penicillin streptomycin) to allow attachment to the culture plate. One day after plating, DRGs were incubated with RPP (SEQ. ID NO: 12: 1 μM, 3 μM or 10 μM in culture medium, FIGS. 14 and 16; SEQ ID NOS: 13 and 14: 3 μM, FIG. 15) for 48 h. For RNA expression analysis, DRGs were lysed in 300 μl of Qiazol in a 1.5 ml tube containing Bullet Blender Pink Beads using a Bullet Blender Tissue Homogenizer (NextAdvance). Total RNA was extracted using RNeasy Midi Kit (Qiagen) according to manufacturer's instructions. Purified RNA was quantified with NanoDrop 2000 (ThermoFIsher), and reverse transcription was run using High Capacity cDNA Reverse Transcription Kit (Applied Biosystems) and 2 ng/ul RNA per reaction. For qRT-PCR, 5 ul of cDNA (corresponding to 10 ng of RNA) were mixed with to 10 ul SsoAdvanced™ Universal SYBR® Green Supermix (BioRad) and 1 ul of each primer (final primer concentration 500 nM each). Reactions were run in triplicates in a QuantStudio™ 7 Flex Real-Time PCR system (Applied Biosystems). Amplification data were analyzed using the comparative cycle threshold (ΔΔCt) method and β-actin as calibrator. Primers were as follows: β-actin: F-[…] (SEQ ID NO: 340), R-[…] (SEQ ID NO: 333); KV4.3: F-[…] (SEQ ID NO: 341), R-[…] (SEQ ID NO: 342); KV7.2 F-[…] AG (SEQ ID NO: 343), R-[…] (SEQ ID NO: 344); OPRM1: F-[…] (SEQ ID NO: 345), R-[…] (SEQ ID NO: 346).

Row | Relative Phosphatase activity [1] | Substance | also measured
1 | 0.20 | MCTEDQERPPVTKEDC [v13] | 
2 | 0.60 | MCTEDLQPPEPQLPEVNC [v23] | 
3 | 0.20 | MCTEALEPPEPPLTKENC [v47] | 
4 | 0.58 | MCTADLQPPEASLPQQNC [v49] | 
5 | 0.59 | MCTGDLQPPEAQVIEVNC [v22] | 
6 | 0.00 | MCAGDLEQPEPPVAKKKKKNC [v33] | inhibition of phosphatase activity [1]: 100%
7 | 0.13 | MCPGDLKQPEPPMPKEYC [v11] | 
8 | 0.41 | MCTEDLEPPKATMTKKDC [v12] | 
9 | 0.48 | MCTEVLVPRTTSGKGRLWFWLWSQKGHPSASACGS [v42] | 
10 | 0.67 | MCTEAPAPPEPALPKKKKNC [v4] | 
11 | 0.79 | MCSEAQEPPESRLPQVNC [v16] | 
12 | 0.97 | MCAEDLQPPPLLEAHCGSDSGRKKRRQC [v43] | 
13 | 0.66 | MCTEAPAPPEPALPKKKKKNC [v2] | 
14 | 0.17 | MCTGDLKLPEPPMSKKKKKNC [v29] | 
15 | 0.77 | MCTGDLQPPKTTVSKKDC [v6] | 
16 | 0.33 | MCTEDLQSPKTTMTKENC [v28] | 
17 | 0.53 | MCTAAPEPPEPQLPQANC [v44] | 
18 | 0.37 | MCSVDLQPPARLRPMVNC [v46] | 
19 |  | MCTEDLEPPEPPLPKENC [v1] | inhibition of phosphatase activity [1]: approximately 60%
20 | 0.49 | MCTADLEPPEPRMEKKKVDC [v5] | 
21 | 0.19 | MCTEAPAPPEPALPKKKKKNC [v27] | 
22 |  | SEQ ID NO: 14: RPP fused to an intracellular transport peptide and cyclized; sequence in Table 19 (cyclo([dR][dR][ξGly(dodecyl)][dR][dR][dR][dK][dP][dL][dP][dP][dE][dP][dP][dE][dL][dD][dE]); SMILES CCCCCCCCCCCCC1NC(=O)[C@@H](CCCNC(=N)N)NC(=O)[C@@H](CCCNC(=N)N)NC(=O)[C@@H](CCC(=O)O)NC(=O)[C@@H](CC(=O)O)NC(=O)[C@@H](CC(C)C)NC(=O)[C@@H](CCC(=O)O)NC(=O)[C@H]2CCCN2C(=O)[C@H]2CCCN2C(=O)[C@@H](CCC(=O)O)NC(=O)[C@H]2CCCN2C(=O)[C@H]2CCCN2C(=O)[C@@H](CC(C)C)NC(=O)[C@H]2CCCN2C(=O)[C@@H](CCCCN)NC(=O)[C@@H](CCCNC(=N)N)NC(=O)[C@@H](CCCNC(=N)N)NC(=O)[C@@H](CCCNC(=N)N)NC1=O) | Increase, Nav1.8 mRNA [2]: 13x
23 | 0.46 | MCTEAPAPPEPALPKKKKKKNC [v26] | 

Row | Relative Phosphatase activity [1] | Substance | also measured
24 | 0.28 | MCTEDLEPPERPLPREIC [v38] | 
25 | 0.68 | MCNEALEPPPLRKEHC [v36] | 
26 | 0.24 | MCTEDLQSPKTTMTKENC [v7] | 
27 | 0.76 | MCTEDLQLPKTTMTKEYC [v19] | 
28 | 0.54 | MCIADPEPPEAQLPEGNC [v14] | 
29 | 0.70 | MCTGVQEPPEATLPKKNC [v15] | 
30 | 0.43 | MCTAAPEPPEPPVSKEYC [v18] | 
31 | 0.65 | MCTEDQEQQEEQLPEENC [v9] | 
32 | 0.71 | MCTKDLAPQAPPLLKENC [v51] | 
33 | 0.16 | MCPEDLERPPLTKEHC [v37] | 
34 | 0.59 | MCAGDLKPPETTMSKKNC [v39] | 
35 | 0.84 | MCTADLKPPKTTMTKQNC [v10] | 
36 | 0.89 | MCTEDLKPPEASLPEENC [v32] | 
37 | 0.62 | MCTEDLQPPKTTMAEKYC [v30] | 
38 | 0.24 | MCTKHLEPPGPPLPQENC [v17] | 
39 | 0.07 | MCTEDLKPPEPPLPKENC [v35] | inhibition of phosphatase activity [1]: approximately 90%
40 | 0.63 | MCTEDMEPRKTTMTKKYC [v25] | 
41 | 0.43 | MCSEDPEPPKTTMTKKNC [v31] | 
42 | 0.29 | MCTEDLQQPERSQPMESC [v40] | 
43 | 0.13 | MCSVDLQPPARLRPMVNC [v20] | 
44 | 0.26 | MCTGDLQPPESRQPQVNC [v21] | 
45 | 0.74 | MCNGDLERPEPPVAKEYC [v34] | 

Row | Substance | Relative Phosphatase activity [1] | also measured
46 | MCPEDLQPPEPALPEKKKKKIVVLALVVKSAVSVGVV [v41] | 0.46 | 
